In publication PMC11696143, “A higher order PUF complex is central to regulation of C. elegans germline stem cells” (Nature Communications, 2024):
Changes are numbered by the printed parent chain. Numbers in names are those of the source. Where “and” joins values, the source holds several entries; their conditions need not be identical. Equal values may be shown once.

Tests used:
[1] = biological target: T1, C. elegans FBF-2 RBD+CT (residues 164-632) (C. elegans, UniProt Q09312 164-632); experiment: cell-based or functional assay
T1 sequence (looked up): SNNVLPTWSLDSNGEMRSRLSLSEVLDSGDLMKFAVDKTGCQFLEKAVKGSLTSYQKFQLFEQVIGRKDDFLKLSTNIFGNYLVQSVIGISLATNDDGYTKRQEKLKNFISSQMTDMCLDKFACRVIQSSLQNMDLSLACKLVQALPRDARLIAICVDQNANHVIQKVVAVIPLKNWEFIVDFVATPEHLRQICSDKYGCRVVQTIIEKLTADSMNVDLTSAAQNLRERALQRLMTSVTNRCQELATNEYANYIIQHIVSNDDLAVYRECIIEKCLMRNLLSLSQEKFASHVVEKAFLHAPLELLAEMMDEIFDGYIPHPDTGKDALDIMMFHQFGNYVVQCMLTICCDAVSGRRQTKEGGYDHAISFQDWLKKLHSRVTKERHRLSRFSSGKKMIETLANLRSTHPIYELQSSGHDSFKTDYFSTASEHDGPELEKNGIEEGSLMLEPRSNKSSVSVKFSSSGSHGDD

[2] = biological target: T1, C. elegans FBF-2 RBD+CT (residues …); experiment: ITC; LST-1 variant (100-400 µM) titrated from the syringe into the cell with FBF-2 (10-30 µM); 20 °C; 20 mM HEPES pH 7.4, 150 mM NaCl, 0.5 mM TCEP; no RNA; one-site model; apparent constants; two technical replicates; details: both partners purified
[3] = biological target: T2, C. elegans FBF-2 RBD (residues 164-575) (C. elegans, UniProt Q09312 164-575); experiment: as above; details: both partners purified
T2 construct: His-SUMO tag cleaved with TEV protease (the insert came from an earlier pGEX6p FBF-2 RBD construct); source: E. coli, purified as FBF-2 RBD+CT (Ni-NTA, heparin, Superdex 75); for SEC-MALS and cryo-EM coexpressed with GST-LST-1 19-98 in E. coli BL21-CodonPlus (DE3)-RIL and purified as a complex; not shown: His6-SUMO, N-terminal, cleaved
T2 sequence (looked up): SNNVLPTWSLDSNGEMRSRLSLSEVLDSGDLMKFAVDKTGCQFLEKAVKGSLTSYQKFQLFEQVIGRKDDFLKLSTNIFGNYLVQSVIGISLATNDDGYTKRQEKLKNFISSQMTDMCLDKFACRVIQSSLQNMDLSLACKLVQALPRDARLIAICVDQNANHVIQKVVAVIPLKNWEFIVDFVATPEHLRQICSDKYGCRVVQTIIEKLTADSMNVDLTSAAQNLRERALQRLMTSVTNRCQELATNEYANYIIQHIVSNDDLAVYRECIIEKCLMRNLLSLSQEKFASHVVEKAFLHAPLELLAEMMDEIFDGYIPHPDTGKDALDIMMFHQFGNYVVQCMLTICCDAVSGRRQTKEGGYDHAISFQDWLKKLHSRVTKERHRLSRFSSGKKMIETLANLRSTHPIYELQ

[4] = biological target: T1, C. elegans FBF-2 RBD+CT (residues …); experiment: SEC-MALS; co-purified FBF-2 RBD+CT or RBD/LST-1 19-98 complex (~30 µM) with 29-nt gld-1 FBEa-FBEa* RNA on Superdex-200 10/300 GL; 20 mM HEPES pH 7.4, 150 mM NaCl, 2 mM DTT; details: both partners purified
[5] = biological target: T2, C. elegans FBF-2 RBD (residues 164-575); experiment: as above; details: both partners purified
[6] = biological target: T2, C. elegans FBF-2 RBD (residues 164-575); experiment: FRET or BRET; 2 µM unlabeled FBF-2 RBD pre-incubated with Cy5-labeled LST-1 19-98 (20, 40, 80 nM), then 20 nM 5'-Cy3 gld-1 FBEa-FBEa* RNA; room temperature; FRET from Cy3 on the RNA to Cy5 on LST-1; details: both partners purified
[7] = biological target: T3, FBF-2 RBD;LST-1 19-98 S74C (Caenorhabditis elegans;Caenorhabditis …, UniProt Q09312;P91820 164-575;19-98, |S74C); experiment: FRET; 2 uM FBF-2 RBD; higher FRET than S26C; EMSA: 5 nM RNA, 10 mM HEPES pH 7.4, 75 mM NaCl, 0.01% Tween 20, 0.1 mg/ml BSA, 0.1 mg/ml yeast tRNA, 2 mM DTT, 4 C overnight; details: protein: recombinant;recombinant; tags: His-SUMO, removed by TEV;Cy5-maleimide on C74; chain copies: 2;1; label: 5'-Cy3
T3 sequence 1: T2 sequence (looked up)
T3 sequence 2: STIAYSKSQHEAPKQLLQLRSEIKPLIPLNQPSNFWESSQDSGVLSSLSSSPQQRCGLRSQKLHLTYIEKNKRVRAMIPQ

FBF-2 RBD [8] = biological target: T4, FBF-2 RBD (Caenorhabditis elegans, UniProt Q09312 164-575); experiment: X-ray crystallography; 2.2 A; EMSA: 5 nM RNA, 10 mM HEPES pH 7.4, 75 mM NaCl, 0.01% Tween 20, 0.1 mg/ml BSA, 0.1 mg/ml yeast tRNA, 2 mM DTT, 4 C overnight; details: protein: recombinant; tags: His-SUMO, removed by TEV
T4 sequence: T2 sequence (looked up)

FBF-2 RBD+CT [9] = biological target: T5, FBF-2 RBD+CT (Caenorhabditis elegans, UniProt Q09312 164-632); experiment: EMSA; up to 5 uM FBF-2; EMSA: 5 nM RNA, 10 mM HEPES pH 7.4, 75 mM NaCl, 0.01% Tween 20, 0.1 mg/ml BSA, 0.1 mg/ml yeast tRNA, 2 mM DTT, 4 C overnight; details: protein: recombinant; tags: His6-SUMO, removed by Ulp1; label: 3'-Cy5
T5 sequence: T1 sequence (looked up)

FBF-2 RBD+CT [10] = biological target: T5, FBF-2 RBD+CT; experiment: EMSA; apparent Kd, Hill fit; EMSA: 5 nM RNA, 10 mM HEPES pH 7.4, 75 mM NaCl, 0.01% Tween 20, 0.1 mg/ml BSA, 0.1 mg/ml yeast tRNA, 2 mM DTT, 4 C overnight; details: protein: recombinant; tags: His6-SUMO, removed by Ulp1; label: 3'-Cy5
FBF-2 RBD [11] = biological target: T4, FBF-2 RBD; experiment: as above; details: protein: recombinant; tags: His-SUMO, removed by TEV; label: 3'-Cy5
FBF-2 RBD+CT L610A = biological target: T6, FBF-2 RBD+CT L610A (Caenorhabditis elegans, UniProt Q09312 164-632, L610A); experiment: as above; details: protein: recombinant; label: 3'-Cy5
T6 sequence: T1 sequence (looked up) with L447A

FBF-2 RBD;LST-1 19-98 = biological target: T7, FBF-2 RBD;LST-1 19-98 (Caenorhabditis elegans;Caenorhabditis …, UniProt Q09312;P91820 164-575;19-98, |); experiment: EMSA; 10 uM LST-1 19-98; apparent Kd; EMSA: 5 nM RNA, 10 mM HEPES pH 7.4, 75 mM NaCl, 0.01% Tween 20, 0.1 mg/ml BSA, 0.1 mg/ml yeast tRNA, 2 mM DTT, 4 C overnight; details: protein: recombinant;recombinant; tags: His-SUMO, removed by TEV;His6-SUMO removed by Ulp1; GST removed by TEV when coexpressed; chain copies: 2;1; label: 3'-Cy5
T7 sequence 1: T2 sequence (looked up)
T7 sequence 2: T3 sequence 2 with C56S

FBF-2 RBD+CT;LST-1 19-98 = biological target: T8, FBF-2 RBD+CT;LST-1 19-98 (Caenorhabditis elegans;Caenorhabditis …, UniProt Q09312;P91820 164-632;19-98, |); experiment: as above; details: protein: recombinant;recombinant; tags: His6-SUMO, removed by Ulp1;His6-SUMO removed by Ulp1; GST removed by TEV when coexpressed; chain copies: 2;1; label: 3'-Cy5
T8 sequence 1: T1 sequence (looked up)
T8 sequence 2: T3 sequence 2 with C56S

LST-1 19-98 = biological target: T9, LST-1 19-98 (Caenorhabditis elegans, UniProt P91820 19-98); experiment: EMSA; 10 uM LST-1 19-98; nonspecific intermediate band, seen with FBF-2 present; EMSA: 5 nM RNA, 10 mM HEPES pH 7.4, 75 mM NaCl, 0.01% Tween 20, 0.1 mg/ml BSA, 0.1 mg/ml yeast tRNA, 2 mM DTT, 4 C overnight; details: protein: recombinant; tags: His6-SUMO removed by Ulp1; GST removed by TEV when coexpressed; label: 3'-Cy5
T9 sequence: T3 sequence 2 with C56S

B1: LST-1 peptide (residues 19-98) spanning PIM-A and PIM-B (domain or fragment, C. elegans, UniProt P91820 19-98, looked up)
chain: T3 sequence 2 with C56S
notes: LST-1 (lateral signaling target 1), C. elegans, residues 19-98 of the N-terminal intrinsically disordered region; Codon-optimised synthetic cDNA in pSMT3; tag removed with Ulp1; also called LST-1^19–98; source: E. coli BL21-CodonPlus (DE3)-RIL, purified (Ni-NTA, heparin, Ni-NTA pass, Superdex 75)
For B1, the “EMSA: RNA-binding affinity of FBF-2 RBD+CT for the 29-nt FBEa-FBEa* RNA with 10 µM LST-1 19-98 against without LST-1” value [1] was 4 fold, the Kd [2] was 1100 nM and 1900 nM and the dH [2] was -14.8 kcal/mol and -10.8 kcal/mol. For the same binder, the “stoichiometry N” value [2] was 0.5 sites and 0.57 sites, the Kd [3] was 480 nM and 520 nM and the dH [3] was -33.2 kcal/mol and -37.5 kcal/mol. The “stoichiometry N” value [3] was 0.46 sites.

B2: LST-1^19–98 from the GST fusion coexpressed with FBF-2 (domain or fragment, C. elegans, UniProt P91820 19-98, looked up)
chain: T3 sequence 2 with C56S
notes: LST-1, C. elegans, residues 19-98; GST removed with TEV protease; also called GST-LST-1^19–98; not shown: GST, N-terminal, cleaved
For B2, the “stoichiometry N” value [4] was 2 FBF-2 per LST-1 and the “stoichiometry N” value [5] was 2 FBF-2 per LST-1.

B3: LST-1^19–98 S74C labeled with Cy5 (domain or fragment, C. elegans, UniProt P91820 19-98, looked up)
chain: T3 sequence 2
modifications: Cy5 maleimide dye on C74
notes: LST-1, C. elegans, residues 19-98 with a cysteine in place of S74, five residues upstream of PIM-B; Probably made as the wild-type LST-1 19-98 (His6-SUMO, cleaved); also called C74-labeled LST-1^19–98; source: purified; expression not described for this mutant
B3: binds [6].

B4: LST-1^19–98(B^m): K80A, L83A, Y85A (domain or fragment, C. elegans, UniProt P91820 19-98, looked up)
chain: T3 sequence 2 with C56S, K62A, L65A, Y67A
notes: LST-1, C. elegans, residues 19-98 with PIM-B mutated; PIM-A intact; also called LST-1 B^m; source: E. coli, purified by the same protocol as the wild-type LST-1 19-98
With B4 the Kd [2] was 24100 nM and 46200 nM, the dH [2] was -11.1 kcal/mol and -11.5 kcal/mol and the “stoichiometry N” value [2] was 1.06 sites and 0.89 sites. For the same binder, the Kd [3] was 1460 nM and 1540 nM, the dH [3] was -12.1 kcal/mol and -12.5 kcal/mol and the “stoichiometry N” value [3] was 0.83 sites and 0.86 sites.

B5: LST-1^19–98(A^m): K32A, L35A (domain or fragment, C. elegans, UniProt P91820 19-98, looked up)
chain: T3 sequence 2 with K14A, L17A, C56S
notes: LST-1, C. elegans, residues 19-98 with PIM-A mutated; PIM-B intact; also called LST-1 A^m; source: E. coli, purified by the same protocol as the wild-type LST-1 19-98
For B5, the Kd [2] was 3700 nM and 2800 nM, the dH [2] was -11.4 kcal/mol and -11.5 kcal/mol and the “stoichiometry N” value [2] was 1.02 sites and 0.98 sites. For the same binder, the Kd [3] was 130 nM and 120 nM, the dH [3] was -15.3 kcal/mol and -16.5 kcal/mol and the “stoichiometry N” value [3] was 1.15 sites and 1.05 sites.

AUCAUGUGCCAUACAUCAUGUUGCCAUUU (ssRNA) [gld-1 FBEa-FBEa* (FRET)]: binds [7].

CAUGUUGCCAU (ssRNA) [gld-1 FBEa* 11-nt (crystal)]: binds (FBF-2 RBD [8]).

AUCAACAGCCAUACAUCAACAUGCCAUUU (ssRNA) [FBEam-FBEa*m]: no binding (FBF-2 RBD+CT [9]).

AUCAUGUGCCAUACAUCAUGUUGCCAUUU (ssRNA) [gld-1 FBEa-FBEa* (EMSA)] gave a Kd (FBF-2 RBD+CT [10]) of 435 ± 25 nM, a Kd (FBF-2 RBD [11]) of 131 ± 10 nM and a Kd (FBF-2 RBD+CT L610A) of 80 ± 11 nM. For the same binder, the Kd (FBF-2 RBD;LST-1 19-98) was 107 ± 3 nM, the Kd (FBF-2 RBD+CT;LST-1 19-98) was 109 ± 2 nM and the binding result (LST-1 19-98) was “binds”.

For AUCAUGUGCCAUACAUCAACAUGCCAUUU (ssRNA) [FBEa-FBEa*m], the Kd (FBF-2 RBD+CT [10]) was 1190 ± 9 nM and the Kd (FBF-2 RBD [11]) was 145 ± 4 nM.
